Assay results from patent US6090605A, “Purified porcine kidney L-fucose kinase” (The Board of Trustees of the University of Arkansas, priority 1998, dated 2000).

Assays:
[1] = substrate: C[C@H](O)[C@@H](O)[C@@H](O)[C@H](O)C=O; assay: Effect of substrate concentration on velocity (Lineweaver-Burke, Km); assay type: biochemical, pig; conditions: other: 5 mM ATP and 5 mM Mg++; pH 8.0; 37.0 °C
Procedure: (§1) Fucokinase activity was assayed by measuring the production of L-fucose-1-Pfrom [^3 H]L-fucose and ATP. The incubation mixtures contained the following components (final concentrations) in a total volume of 150 μl: L-fucose, 0.1 mM; ATP, 5 mM; MgSO4, 5 mM; Tris-HCl buffer, pH 8.0, 65 mM; and various amounts of enzyme at the different stages of purification. Incubations were at 37° C. for 10 minutes, and reactions were terminated by heating the reaction mixtures in a boiling water bath for 1 minute. The incubation mixtures were then applied to a column of DE-52 contained in a Pasteur pipette, and the column was washed with at least 5 column volumes of 10 mM (NH4)HCO3 to remove the unbound material. The [^3 H]fucose-1-P was then eluted with 500 mM (NH4)HCO3. Aliquots of the eluates were assayed for their radioactive content by subjecting a portion to scintillation counting.
(§2) The effect of concentration of the substrates, L-fucose and ATP, on the velocity of the reaction was determined. The Km for L-fucose was determined at saturating concentrations of the other substrates, i.e., 5 mM ATP and 5 mM Mg^++. […] A similar experiment was performed with ATP. In this case, the reactions were done in the presence of 5 mM Mg^++ and 100 μM L-fucose. The Km for ATP was estimated to be 600 μM (data not shown).

[2] = substrate: Nc1ncnc2c1ncn2[C@@H]1O[C@H](COP(=O)(O)OP(=O)(O)OP(=O)(O)O)[C@@H](O)[C@H]1O; assay: as above; assay type: biochemical, pig; conditions: other: 5 mM Mg++ and 100 μM L-fucose; pH 8.0; 37.0 °C
Procedure: as §1, §2

B1: pig kidney fucokinase (Sus scrofa) (protein)
chain: MEQPKGVDWTVIILTCQYKDSVEVFQKELEIRQKREQIPASTLLLAVEDPEVHVGSGGATLNALLVAAEHLSARAGFTVVTSDVLHSAWILILHMGRDFPFDDCGRAFTCLPVENPQAPVEAVVCNLDCLLDIMSHRLGPGSPPGVWVCSTDMLLSVPPNPGINWDGFRGARVIALPGSTAYARNHGVYLTDSQGFVLDIYYQGTEAEIQRCARPDGQVPLVSGIVFFSVETAEHLLATHVSPPLDACTYMGLDSGAQPVQLSLFFDILLCMARNVRREDFLVGRPPEMGRGDMETEGYLRGARAELWRELRDQPLTLAYVPDGSYNYMTNSASEFLHSLTFPGASGAQVVHSQVEEQQLLGAGSSVVSCLLEGPVQLGPGSVLQHCHLRGPIHIGTGCFVSGLDAAQSEALHSLELHDLVLQGHHLQLHGAPSRAFTLVGRLDSWERQGAGTYLNMSWSKFFQKTGIRDWDLWDPDTPPTERCLLSARLFPVLHPLRALGPQDMLWMLDPQEDGGKALRAWRDSWRLSWEQLQPCLDRAATLASRRDLFFRQALHKARHVLEARQDLSLRPLIRAAVREGCPGPLMATLDQVAAGAGDPGVAARALACVADILGCMAEGRGGLRSGPAANPEWVRPFSYLECGDLAGGVEALAQEREKWLSRPALLVRAARHYEGAGQILIRQAVMSAQHFVSTEPVELPAPGQWVVAECPARVDFSGGWSDTPPLAYEHGGAVLGLAVRVDGRRPIGARARRIPEPELWLAVGPQHDKMAMKIVCRSLDDLQDYCQPHAPGALLKAAFICAGILSVHSELSLSEQLLCTFGGGFELQTWSELPHGSGLGTSSILAGAALAALQRVAGRAVGTEALIHAVLHLEQVLTTGGGWQDQVGGLMPGIKVGRSRAQLPLKVEVEEITVPAGFVQKLNDHLLLVYTGKTRLARNLLQDVLRSWYARLPPVVQNAHNLVQQTEECAEAFRQGSLPRLGQCLTSYWEQKKLMAPGCEPLAVRHMMDALAPHVHGQSLAGAGGGGFLYLLTKEPRQKEALEAVLAKTEGLGNYSVHLVEVDTQGLSLQLLGTETSTGCSF
notes: L-Fucokinase was purified to apparent homogeneity from the cytosolic fraction of pig kidney; from tissue; host or cells: pig kidney, cytosolic fraction
Protein B1 has a Km [1] of 27 µM and a Km [2] of 600 µM.
